Measured values as given in the supplement of paper PMC7877785.
± gives the uncertainty stated by the source.

Assay: self-splicing fitness, log relative to wild type (ln ratio); higher = more splicing; Tetrahymena group I intron in knt gene, E. coli kanamycin selection, DiMSum; sequences stand for … in CUCUCU…GGAGGGAAAAGUUAUCAGGCAUGCACCUGGUAGCUAGUCUUUAAACCAAUAGAUUGCAUCGGUUUAAAAGGCAAGACCGUCAAAUUGCGGGAAAGGGGUCAACAGCCGUUCAGUACCAAGUCUCAGGGGAAACUUUGAGAUGGCCUUGCAAAGGGUAUGGUAAUAAGCUGACGGACAUGGUCCUAACCACGCAGCCAAGUCCUAAGUCAACAGAUCUUCUGUUGAUAUGGAUGCAGUUCACAGACUAAAUGUCGGUCGGGGAAGAUGUAUUCUUCUCAUAAGAUAUAGUCGGACCUCUCCUUAAUGGGAGCUAGCGGAUGAAGUGAUGCAACACUGGAGCCGCUGGGAACUAAUUUGUAUGCGAAAGUAUAUUGAUUAGUUUUGGAGUACUCGUGGUCG
Method in brief: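 Colonies from six replicate transformations of E. coli BL21(DE3) were pooled and amplicon-sequenced on an Illumina HiSeq 2500. The library placed an intron with all eight P1ex-region nucleotides randomised inside the knt kanamycin-resistance gene on pET-22b(+), and cells grew overnight at 37°C or 30°C on LB agar with or without 25 μg/mL kanamycin (plus 100 μg/mL carbenicillin, 50 μM IPTG, 0.2% rhamnose). Fitness is the DiMSum error-weighted combination of wild-type-normalised replicate fold changes, kanamycin versus none.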

Sequence	self-splicing fitness (ln) (30 °C)	self-splicing fitness (ln) (37 °C)
UGAAAGCAAUAUUACGAGCA	-0.581 ± 0.089	0.406 ± 0.11
UGAAAGCAAUAUUACGAGUU	-3.31 ± 0.15	-0.915 ± 0.095
UGAAAGCAAUAUUACGAUGG	-1.59 ± 0.086	-0.618 ± 0.11
UGAAAGCAAUAUUACGCAUC	–	-3.14 ± 0.28
UGAAAGCAAUAUUACGCUCC	-1.4 ± 0.12	-0.227 ± 0.14
UGAAAGCAAUAUUACGCUUC	-2.32 ± 0.42	-2.29 ± 0.29
UGAAAGCAAUAUUACGGACA	-0.0695 ± 0.088	-0.28 ± 0.096
UGAAAGCAAUAUUACGGCGU	-1.12 ± 0.095	0.0159 ± 0.11
UGAAAGCAAUAUUACGGGCA	-0.0393 ± 0.081	0.386 ± 0.092
UGAAAGCAAUAUUACGGUUC	-4.11 ± 0.26	-2.41 ± 0.23
UGAAAGCAAUAUUACGUAAG	-0.503 ± 0.087	-0.0639 ± 0.12
UGAAAGCAAUAUUACGUCCC	-2.54 ± 0.45	–
UGAAAGCAAUAUUACGUUCA	-2.03 ± 0.13	-1.48 ± 0.14
UGAAAGCAAUAUUACGUUCG	-1.51 ± 0.094	-0.54 ± 0.11
UGACAGCAAUAUUACGAAAC	-3.96 ± 0.24	-1.96 ± 0.26
UGACAGCAAUAUUACGAUAA	-0.561 ± 0.052	0.4 ± 0.072
UGACAGCAAUAUUACGAUAU	-2.67 ± 0.16	-1.9 ± 0.14
UGACAGCAAUAUUACGAUUU	-0.733 ± 0.094	-0.108 ± 0.1
UGACAGCAAUAUUACGCACA	0.341 ± 0.092	0.528 ± 0.12
UGACAGCAAUAUUACGCACC	-1.38 ± 0.12	-0.767 ± 0.17
UGACAGCAAUAUUACGCCUA	0.107 ± 0.069	0.414 ± 0.086
UGACAGCAAUAUUACGCGAC	-1.82 ± 0.14	-1.86 ± 0.19
UGACAGCAAUAUUACGCUAC	-2.24 ± 0.43	-1.56 ± 0.26
UGACAGCAAUAUUACGCUGU	-4.01 ± 0.24	-3.42 ± 0.27
UGACAGCAAUAUUACGCUUC	-3.56 ± 0.25	-2.29 ± 0.23

Sequence	self-splicing fitness (ln) (30 °C)	self-splicing fitness (ln) (37 °C)
UGACAGCAAUAUUACGGACG	0.0374 ± 0.078	0.415 ± 0.11
UGACAGCAAUAUUACGGAUU	-2.54 ± 0.094	-2.29 ± 0.13
UGACAGCAAUAUUACGGCAA	-1.41 ± 0.14	-0.13 ± 0.17
UGACAGCAAUAUUACGUCAC	-3.74 ± 0.17	-3.16 ± 0.23
UGACAGCAAUAUUACGUCGA	-0.222 ± 0.092	-0.143 ± 0.098
UGACAGCAAUAUUACGUGGU	-3.23 ± 0.15	-2.22 ± 0.12
UGACAGCAAUAUUACGUGUG	-0.953 ± 0.06	-0.807 ± 0.069
UGACAGCAAUAUUACGUGUU	-4.32 ± 0.19	-2.22 ± 0.19
UGACAGCAAUAUUACGUUAA	-0.645 ± 0.1	-1.16 ± 0.09
UGACAGCAAUAUUACGUUAG	-1.01 ± 0.066	-0.987 ± 0.089
UGACAGCAAUAUUACGUUAU	-3.65 ± 0.19	-3.04 ± 0.21
UGACAGCAAUAUUACGUUUC	-1.65 ± 0.29	-1.5 ± 0.33
UGAGAGCAAUAUUACGAAUG	-2.97 ± 0.36	-1.09 ± 0.46
UGAGAGCAAUAUUACGAAUU	-3.84 ± 0.16	-2.79 ± 0.17
UGAGAGCAAUAUUACGACAU	-3.847 ± 0.037	-2.82 ± 0.048
UGAGAGCAAUAUUACGAGCC	-1.9 ± 0.33	–
UGAGAGCAAUAUUACGAGCU	–	-2.53 ± 0.49
UGAGAGCAAUAUUACGAUAG	-3.19 ± 0.38	-2.11 ± 0.26
UGAGAGCAAUAUUACGAUGG	-3.59 ± 0.23	-2.72 ± 0.2
UGAGAGCAAUAUUACGAUUG	-2.57 ± 0.27	-1.14 ± 0.27
UGAGAGCAAUAUUACGCUGG	-3.87 ± 0.22	-2.67 ± 0.25
UGAGAGCAAUAUUACGGAAG	-3.67 ± 0.23	-2.2 ± 0.31
UGAGAGCAAUAUUACGGUUA	-1.14 ± 0.23	-1.11 ± 0.21
UGAGAGCAAUAUUACGGUUU	-2.16 ± 0.4	–
UGAGAGCAAUAUUACGUAGG	-2.48 ± 0.35	-1.12 ± 0.41

Sequence	self-splicing fitness (ln) (30 °C)	self-splicing fitness (ln) (37 °C)
UGAGAGCAAUAUUACGUCUG	-2.76 ± 0.42	-1.88 ± 0.33
UGAGAGCAAUAUUACGUGCC	–	-2.99 ± 0.43
UGAGAGCAAUAUUACGUGGA	-3.18 ± 0.28	-2.95 ± 0.47
UGAGAGCAAUAUUACGUUAC	–	-1.79 ± 0.3
UGAGAGCAAUAUUACGUUCA	-0.924 ± 0.12	-0.794 ± 0.12
UGAGAGCAAUAUUACGUUUA	-3.46 ± 0.39	–
UGAUAGCAAUAUUACGACGG	-1.4 ± 0.19	0.124 ± 0.18
UGAUAGCAAUAUUACGACGU	-2.71 ± 0.24	-1.17 ± 0.37
UGAUAGCAAUAUUACGAGCU	-1.44 ± 0.15	-0.828 ± 0.17
UGAUAGCAAUAUUACGAUCU	0.499 ± 0.12	0.105 ± 0.16
UGAUAGCAAUAUUACGAUGA	-0.925 ± 0.15	-0.791 ± 0.12
UGAUAGCAAUAUUACGCCAG	-1.59 ± 0.23	-0.994 ± 0.49
UGAUAGCAAUAUUACGCCGA	-2.91 ± 0.32	-1.28 ± 0.18
UGAUAGCAAUAUUACGCGCC	-1.82 ± 0.36	0.00337 ± 0.21
UGAUAGCAAUAUUACGCGUA	-1.74 ± 0.13	-0.96 ± 0.13
UGAUAGCAAUAUUACGGAAG	-1.99 ± 0.14	-1.64 ± 0.21
UGAUAGCAAUAUUACGGGGA	-3.16 ± 0.39	-1.8 ± 0.26
UGAUAGCAAUAUUACGGGUA	-1.74 ± 0.12	-1.81 ± 0.14
UGAUAGCAAUAUUACGGUCG	-0.332 ± 0.098	-0.477 ± 0.1
UGAUAGCAAUAUUACGUAUG	-1.1 ± 0.16	-0.567 ± 0.16
UGAUAGCAAUAUUACGUUGA	-3.42 ± 0.19	-1.91 ± 0.14
UGAUAGCAAUAUUACGUUGU	-4.45 ± 0.29	-2.98 ± 0.21
UGCAAGCAAUAUUACGAAAA	-2.32 ± 0.28	-1.64 ± 0.17
UGCAAGCAAUAUUACGAAGC	–	-1.87 ± 0.4
UGCAAGCAAUAUUACGACUC	-2.66 ± 0.18	-1.56 ± 0.17

Sequence	self-splicing fitness (ln) (30 °C)	self-splicing fitness (ln) (37 °C)
UGCAAGCAAUAUUACGAGAC	-4.03 ± 0.46	-2.05 ± 0.34
UGCAAGCAAUAUUACGAGCA	-2.28 ± 0.15	-1.39 ± 0.12
UGCAAGCAAUAUUACGAGGA	-3.28 ± 0.26	-0.992 ± 0.14
UGCAAGCAAUAUUACGAUCC	-1.21 ± 0.14	-0.955 ± 0.2
UGCAAGCAAUAUUACGAUCU	-0.477 ± 0.091	-0.822 ± 0.1
UGCAAGCAAUAUUACGAUGC	-3.55 ± 0.3	–
UGCAAGCAAUAUUACGCAGA	-1.92 ± 0.16	-1.75 ± 0.15
UGCAAGCAAUAUUACGCCAC	–	-3.58 ± 0.42
UGCAAGCAAUAUUACGCCAG	-2.88 ± 0.19	-1.9 ± 0.26
UGCAAGCAAUAUUACGCCUA	0.231 ± 0.073	0.0781 ± 0.075
UGCAAGCAAUAUUACGCGAC	-3.46 ± 0.19	-2.65 ± 0.23
UGCAAGCAAUAUUACGCGCG	-1.84 ± 0.13	-0.733 ± 0.17
UGCAAGCAAUAUUACGCUGC	-3.62 ± 0.29	-2.4 ± 0.3
UGCAAGCAAUAUUACGCUUU	-3.45 ± 0.21	-1.85 ± 0.2
UGCAAGCAAUAUUACGGCAA	0.111 ± 0.12	-0.447 ± 0.12
UGCAAGCAAUAUUACGGCAC	-3.59 ± 0.4	-3.28 ± 0.33
UGCAAGCAAUAUUACGGUCU	-0.647 ± 0.07	0.283 ± 0.082
UGCAAGCAAUAUUACGUAGU	-3.83 ± 0.18	-2.42 ± 0.17
UGCAAGCAAUAUUACGUAUC	-3.22 ± 0.2	-1.14 ± 0.15
UGCAAGCAAUAUUACGUCGU	-3.58 ± 0.22	-1.81 ± 0.17
UGCAAGCAAUAUUACGUUAA	-2.27 ± 0.13	-0.494 ± 0.1
UGCAAGCAAUAUUACGUUUA	-1.49 ± 0.076	-0.234 ± 0.072
UGCCAGCAAUAUUACGAAGC	-3.74 ± 0.22	-1.91 ± 0.18
